Here are results for two sequences from article PMC11774035.

This data set has as its target T1, His6-Lrp (Klebsiella oxytoca MIT 09-7231) (UniProt A0A181XPK7).
T1 sequence: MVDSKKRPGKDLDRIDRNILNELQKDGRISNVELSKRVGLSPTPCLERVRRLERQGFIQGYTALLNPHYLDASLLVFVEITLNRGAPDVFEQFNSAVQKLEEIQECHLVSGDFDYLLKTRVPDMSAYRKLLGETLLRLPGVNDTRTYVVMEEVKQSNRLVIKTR
Briefly: EMSA. The conditions noted are these: 40 mM HEPES ([…], room temperature 20 min. Background: In EMSA bound probe runs differently from free probe, usually more slowly.

In the case of “TCTCTCACTCGAAATTTAACAGGTTTTTCGTTTGTTTTTTAACAAAAAAGCGATGAGAAAGTGCTATTCCTTGTCTGTTTACTGGACATGAAAGACGATACGGTTTGCACAAATATTGCACGCCAATGAGTGCATTATGTCAATCAAAA (double strand) [aroX-npsA fragment 1]”, the binding entry is given as “no binding”.

For the sequence “TCTCTCCTGGAGAATTAGGAACGTTCACACGCATAAAATCTTCTCTTGAAGAAGAAATTAAAGATCTAAAGAAATGCCGCCAGCTTACCGTGAGATGCTTCTAAGAAAACACCGCAAAACAAGCAACATATAAGCAACACAAACATAACT (double strand) [aroX-npsA fragment 3]”, the binding result is “no binding”.
